The target in test [1] is CD3 on cells (PBMC, primary patient samples). The test is described as follows: flow cytometry, PBMC treated with C-IgG, dot plot CD38-PE against CD3-V450; reference panel for the treated samples; unstained panel: CD3 0%. A general note: Flow cytometry measures light scatter and fluorescence of single cells or particles in a stream.
Test [2] has the same target. The test is described as follows: flow cytometry on a primary patient sample, control panel: CD3-V450 staining is kept (reference for the bionic panel).

For the substance non-binding IgG antibody, the CD3 (% of PBMC in the CD3-V450 positive, CD38-PE negative quadrant) in test [1] is 25%. The same substance showed a % CD3-V450 stained cells (control panel) in test [2] of 25%.

The values above are taken from US20260008864A1.
